{
  "source": "paper PMC7755911",
  "about": "(Scientific Reports, 2020)",
  "binders": {"B1": {"name": "NIH-CoVnb-112 (VHH)", "VHH": "DVQLQESGGGLVQPGGSLRLSCAASGLTLDYYAIGWFRQAPGKEREGVSCISSSDGSTYYADSVKGRFTTSRDNAKNTVYLQMNSLKPEDTAVYYCAAVPSTYYSGTYYYTCHPGGMDYWGKGTQVTVSS", "notes": "also called lead nanobody candidate; anti-SARS-CoV-2 RBD nanobody; source: E. coli BL21 (DE3), periplasm by osmotic shock, purified (HisTrap, Superdex 75)"}},
  "target": "SARS-CoV-2 Receptor Binding Domain (RBD) (SARS-CoV-2, UniProt P0DTC2)",
  "experiment": "ELISA",
  "details": "both partners purified",
  "data": [
    {"binder": "B1", "values": [
      {"measurement": "EC50", "result": 1.11, "unit": "nM"}
    ]}
  ]
}
